Data: patent publication US20190360025A1

What was measured:
[1] = biological target: tumor necrosis factor alpha (TNF-α), R&D Systems 210-TA-005 (UniProt P01375); assay: c-PLA, buffer; TNF-α 1.00E-09 M
[2] = biological target: tumor necrosis factor alpha (TNF-α), R&D Systems 210-TA-005 (UniProt P01375); assay: t-PLA 1X probes, human plasma; TNF-α 1.00E-11 M
[3] = biological target: tumor necrosis factor alpha (TNF-α), R&D Systems 210-TA-005 (UniProt P01375); assay: t-PLA 10X probes, human plasma; TNF-α 1.00E-10 M
[4] = biological target: tumor necrosis factor alpha (TNF-α), R&D Systems 210-TA-005 (UniProt P01375); assay: t-PLA 10X probes, human plasma; TNF-α 5.00E-07 M
[5] = biological target: vascular endothelial growth factor (VEGF), R&D Systems 293-VE-010 (human) (UniProt P15692); assay: c-PLA, buffer; VEGF 1.00E-08 M
Chain of UniProt P15692 (P15692 other isoform, or with tags, fused parts or gaps limits assumed): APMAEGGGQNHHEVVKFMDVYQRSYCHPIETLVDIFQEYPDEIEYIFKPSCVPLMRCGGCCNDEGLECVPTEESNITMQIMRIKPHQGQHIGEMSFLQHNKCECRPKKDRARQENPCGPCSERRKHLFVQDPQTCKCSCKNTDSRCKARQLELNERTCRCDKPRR

[6] = biological target: vascular endothelial growth factor (VEGF), R&D Systems 293-VE-010 (human) (UniProt P15692); assay: c-PLA, buffer; VEGF 1.00E-09 M
[7] = biological target: vascular endothelial growth factor (VEGF), R&D Systems 293-VE-010 (human) (UniProt P15692); assay: c-PLA, buffer; VEGF 1.00E-10 M
[8] = biological target: vascular endothelial growth factor (VEGF), R&D Systems 293-VE-010 (human) (UniProt P15692); assay: t-PLA, buffer; VEGF 1.00E-12 M
[9] = biological target: vascular endothelial growth factor (VEGF), R&D Systems 293-VE-010 (human) (UniProt P15692); assay: SPR, isoaffinity graph

Chain of UniProt P01375 (P01375 77-233 limits assumed): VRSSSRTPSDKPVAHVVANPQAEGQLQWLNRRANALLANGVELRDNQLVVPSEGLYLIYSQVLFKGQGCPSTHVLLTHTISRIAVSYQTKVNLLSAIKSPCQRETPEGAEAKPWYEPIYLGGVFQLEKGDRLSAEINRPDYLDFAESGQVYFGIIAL

Row | Counts [5] | SBR [5] | Counts [6] | SBR [6] | Counts [7] | SBR [7] | Counts [8] | SBR [8] | Kd [9] | Substance | Counts [1] | SBR [1] | Counts [2] | SBR [2] | Counts [3] | SBR [3] | Counts [4] | SBR [4]
1 |  |  |  |  |  |  |  |  |  | affinity-purified polyclonal anti-TNF-α antibody (R&D Systems AF-210-NA) | 3700 | 328 | 745000 | 3.1 | 1.44e+07 | 1.3 | 2.25e+09 | 198
2 | 483000 | 16300 | 778000 | 26200 | 95900 | 3230 | 3.69e+06 | 11 | < 5 pM | affinity-purified polyclonal anti-VEGF antibody (R&D Systems AF-293-NA) |  |  |  |  |  |  |  | 
